Reference: patent US20210253716A1 (Regeneron, published 2021)
Substitutions are numbered along the chain they refer to. Each block holds one binder with its values, some of them ahead of it.

Key:
[1] = target: T1, human ACVR1 extracellular domain expressed with a C-terminal mouse IgG2a Fc tag (human); test: SPR (Biacore), mAb captured, 37 C
T1 construct: also called hACVR1-mFc
T1 chain: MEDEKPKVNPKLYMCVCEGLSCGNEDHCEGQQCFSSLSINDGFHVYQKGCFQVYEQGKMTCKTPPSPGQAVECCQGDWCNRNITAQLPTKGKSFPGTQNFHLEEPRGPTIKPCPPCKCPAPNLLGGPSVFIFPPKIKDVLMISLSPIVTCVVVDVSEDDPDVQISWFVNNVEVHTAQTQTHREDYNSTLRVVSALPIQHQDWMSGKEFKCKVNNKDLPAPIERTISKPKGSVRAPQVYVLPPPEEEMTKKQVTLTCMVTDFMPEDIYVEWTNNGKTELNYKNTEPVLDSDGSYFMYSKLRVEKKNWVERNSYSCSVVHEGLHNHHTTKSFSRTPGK
Protocol: (§1) Equilibrium dissociation constants (KD) for ACVR1 binding to purified anti-ACVR1 monoclonal antibodies were determined using a real-time surface plasmon resonance biosensor (SPR-Biacore), Biacore 4000. All binding studies were performed in 10 mM HEPES, 150 mM NaCl, 3 mM EDTA, and 0.05% v/v surfactant Tween-20, pH 7.4 (HBS-ET) running buffer at 25° C. and 37° C. The Biacore CM5 sensor surface was first derivatized by amine coupling with a monoclonal mouse anti-human Fc antibody (GE, #BR-1008-39 or REGN2567) to capture anti-ACVR1 monoclonal antibodies. […] ACVR1 reagents were then injected over anti-human Fc captured anti-ACVR1 monoclonal antibody surface for 2.5-3 minutes at a flow rate of 30 μL/minute, while the dissociation of monoclonal antibody bound ACVR1 reagent was monitored for 10-15 minutes in HBS-ET running buffer. Kinetic association rate constant (kₐ) and dissociation rate constant (kd) were determined by fitting the real-time sensorgrams to a 1:1 binding model using Scrubber 2.0c curve-fitting software. Binding dissociation equilibrium constants (KD) and dissociative half-lives (t½) were calculated from the kinetic rate constants as: […]

[2] = target: T2, human ACVR1 extracellular domain expressed with a C-terminal myc-myc-hexahistidine tag (human); test: SPR (Biacore), mAb captured, 37 C
T2 construct: also called hACVR1-MMH
T2 chain: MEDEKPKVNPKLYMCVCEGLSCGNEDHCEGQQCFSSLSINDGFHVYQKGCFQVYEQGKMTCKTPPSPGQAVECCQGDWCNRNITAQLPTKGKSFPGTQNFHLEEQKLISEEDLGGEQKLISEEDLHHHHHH
Protocol: as §1

[3] = target: T3, mouse ACVR1 extracellular domain expressed with a C-terminal myc-myc-hexahistidine tag (mouse); test: SPR (Biacore), mAb captured, 37 C
T3 construct: also called mACVR1-MMH; mACVR1-mmh
T3 chain: T2 chain with M1V, P10Q
Protocol: as §1

[4] = target: T4, full length human ACVR1 (R206H) on HEK293/BRE-luc/hACVR1-R206H-clone H2 cells (human, UniProt Q04771 21-509); test: flow cytometry, 70 nM antibody, HEK293/hACVR1-R206H cells
T4 construct: also called HEK293/hACVR1-R206H
T4 sequence: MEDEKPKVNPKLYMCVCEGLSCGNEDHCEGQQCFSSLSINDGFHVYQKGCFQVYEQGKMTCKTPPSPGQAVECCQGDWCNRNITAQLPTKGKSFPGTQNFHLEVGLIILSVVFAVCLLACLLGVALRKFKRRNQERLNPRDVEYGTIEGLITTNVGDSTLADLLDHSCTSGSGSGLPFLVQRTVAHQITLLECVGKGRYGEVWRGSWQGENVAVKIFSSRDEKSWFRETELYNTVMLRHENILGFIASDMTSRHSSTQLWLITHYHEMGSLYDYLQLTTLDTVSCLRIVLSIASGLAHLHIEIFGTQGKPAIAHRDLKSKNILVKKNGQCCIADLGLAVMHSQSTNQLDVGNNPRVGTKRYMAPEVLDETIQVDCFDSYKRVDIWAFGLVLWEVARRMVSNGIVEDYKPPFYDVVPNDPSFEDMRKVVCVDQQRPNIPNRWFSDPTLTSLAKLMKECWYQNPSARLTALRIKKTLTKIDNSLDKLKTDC
Protocol: Cells were fixed using BD CytoFix™ (Becton Dickinson, #554655) and analyzed on either Hypercyt® or IQue® Flow Cytometers (Intellicyt®). Unstained and secondary antibody alone controls were also tested for all cell lines. The results were analyzed using ForeCyt® (IntelliCyt®) software to determine the geometric means of fluorescence for viable cells and binding ratios were calculated by normalizing the geometric mean value of the test condition by the geometric mean value of the corresponding unstained cells.

[5] = target: T1, human ACVR1 extracellular domain …; test: SPR (Biacore), mAb captured, 25 C
Protocol: as §1

[6] = target: T2, human ACVR1 extracellular domain …; test: SPR (Biacore), mAb captured, 25 C
Protocol: as §1

[7] = target: T3, mouse ACVR1 extracellular domain …; test: SPR (Biacore), mAb captured, 25 C
Protocol: as §1

[8] = target: T4, full length human ACVR1 (R206H) on …; test: cell-based or functional assay

100 nM Ag Bound (RU) [1]: 219 RU | Kd [1]: 1.39 nM | koff [1]: 0.000515 s⁻¹ | kon [1]: 371000 M⁻¹ s⁻¹ | t½ [1]: 22 min | 900 nM or 100 nM Ag Bound (RU) [2]: 67 RU | Kd [2]: 19.3 nM | koff [2]: 0.00404 s⁻¹ | kon [2]: 209000 M⁻¹ s⁻¹ | t½ [2]: 2.9 min | 900 nM or 100 nM Ag Bound (RU) [3]: 4 RU | MFI - Normalized to Unstained Control [4]: 1660 fold | 100 nM Ag Bound (RU) [5]: 186 RU | Kd [5]: 0.787 nM | koff [5]: 0.00018 s⁻¹ | kon [5]: 229000 M⁻¹ s⁻¹ | t½ [5]: 64 min | 900 nM or 100 nM Ag Bound (RU) [6]: 52 RU | Kd [6]: 10.4 nM | koff [6]: 0.00119 s⁻¹ | kon [6]: 115000 M⁻¹ s⁻¹ | t½ [6]: 10 min | 900 nM or 100 nM Ag Bound (RU) [7]: 3 RU | binding result [7]: no binding (tested: 900 nM or 100 nM)
B1: mAb27247 (antibody, human IgG4 S228P, kappa, V domains shown)
VH: EIQLVESGGDLVQPGGSLKLSCAASGFTFSDSAMHWVRQASGKGLEWVGRIRNKANTYATSYAASVKGRFTVSTDDSKTTAYLQMRYLKIEDTAIYYCTSDQFDYWGQGTLVTVSS
VL: DVVMTQSPLSLSATLGQPASISCRSSQSLVYSDGITYLTWFQQRPGQSPTRLIYQVSNRDSGVPDRFNGSGSGTDFTLNISRVEAEDVGFYYCMEGTHWPWTFGQGTKVELKR
notes: also called H4H27247

100 nM Ag Bound (RU) [1]: 3 RU | 900 nM or 100 nM Ag Bound (RU) [2]: 3 RU | 900 nM or 100 nM Ag Bound (RU) [3]: 1 RU | MFI - Normalized to Unstained Control [4]: 5 fold | 100 nM Ag Bound (RU) [5]: 2 RU | binding result [5]: no binding (tested: 100 nM) | 900 nM or 100 nM Ag Bound (RU) [6]: 1 RU | binding result [6]: no binding (tested: 900 nM or 100 nM) | 900 nM or 100 nM Ag Bound (RU) [7]: 1 RU | binding result [7]: no binding (tested: 900 nM or 100 nM)
B2: mAb29233 (antibody, human IgG4 S228P, kappa, V domains shown)
VH: QVQLVQSGAEVKKPGASVKVSCKASGYTFTSYGISWVRQAPGQGLEWMGWISAYNGNTIYAQKFQGRVTMTTDTSTSTAYMELRSLRSDDTAVYYCARDINWYFDLWGRGTLVTVSS
VL: DIQMTQSPSSLSASVGDRVTITCRASQGIRNDLGWFQQKPGKAPKRLIYAASSLQSGVPSRFSGSGSGTEFTLTISSLQPEDFATYYCLQHNSYPWTFGQGTKVEIKR

900 nM or 100 nM Ag Bound (RU) [2]: 5 RU | binding result [2]: no binding (tested: 900 nM or 100 nM) | 900 nM or 100 nM Ag Bound (RU) [3]: 2 RU | MFI - Normalized to Unstained Control [4]: 2 fold | 900 nM or 100 nM Ag Bound (RU) [6]: 0 RU | 900 nM or 100 nM Ag Bound (RU) [7]: -1 RU
B3: mAb29261 (antibody, human IgG4 S228P, kappa, V domains shown)
VH: EVQLVESGGNLVQPGGSLRLSCAASGFTFSNYAMSWVRQAPGKGLEWVSGITGNGINTYYSVSVKGRFTISRDNSKNTVFLQMNSLRAEDTAIYYCVKERGHSWFGDWFDPWGQGTLVTVSS
VL: B2 VL with F36Y

100 nM Ag Bound (RU) [1]: 205 RU | Kd [1]: 3.88 nM | koff [1]: 0.000911 s⁻¹ | kon [1]: 235000 M⁻¹ s⁻¹ | t½ [1]: 13 min | 900 nM or 100 nM Ag Bound (RU) [2]: 38 RU | Kd [2]: 191 nM | koff [2]: 0.0299 s⁻¹ | kon [2]: 156000 M⁻¹ s⁻¹ | t½ [2]: 0.39 min | MFI - Normalized to Unstained Control [4]: 1640 fold | 100 nM Ag Bound (RU) [5]: 178 RU | Kd [5]: 5.43 nM | koff [5]: 0.00062 s⁻¹ | kon [5]: 114000 M⁻¹ s⁻¹ | t½ [5]: 19 min | 900 nM or 100 nM Ag Bound (RU) [6]: 44 RU | Kd [6]: 109 nM | koff [6]: 0.00679 s⁻¹ | kon [6]: 62100 M⁻¹ s⁻¹ | t½ [6]: 1.7 min | % Inhibition, BRE-luc reporter, 2 nM hBMP7 [8]: 93% | IC50 [M], BRE-luc reporter, 2 nM hBMP7 [8]: 1.9e-09 M
B4: mAb29266 (antibody, human IgG4 S228P, kappa, V domains shown)
VH: QVQLVESGGGVVQPGRSLRLSCEVSGFTFSNYGMHWVRQAPGKGLEWVAVVSYDGSNKYYTDSVKGRFTISRDNSKNTLSLQMNSLRAEDTAVYYCAKDRGITGTSGGVFDIWGQGTMVTVSS
VL: AIRMTQSPSSFSATTGDRVTITCRASQGISSHLAWYQQKPGKAPKFLIYVASTLQSGVPSRFSGSGSGTDFTLTISSLQSEDFATYYCQQYYSYPPTFGQGTKVEIKR
